Positions count from the first letter of the chain named. Where two headings read alike, the source gives them in different places.
T1: Δ30-EXO5 WT (Homo sapiens, UniProt Q9H790 31-373, del1-30)
T1 sequence: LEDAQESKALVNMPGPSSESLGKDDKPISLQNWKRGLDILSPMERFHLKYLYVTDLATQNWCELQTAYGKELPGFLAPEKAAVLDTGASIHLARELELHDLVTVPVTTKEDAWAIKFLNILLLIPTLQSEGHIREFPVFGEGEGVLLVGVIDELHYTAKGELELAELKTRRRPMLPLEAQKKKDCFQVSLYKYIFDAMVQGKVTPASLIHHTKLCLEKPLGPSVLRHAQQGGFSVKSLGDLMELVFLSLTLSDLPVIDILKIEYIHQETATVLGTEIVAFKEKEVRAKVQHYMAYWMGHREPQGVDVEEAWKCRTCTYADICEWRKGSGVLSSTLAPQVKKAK

T2: T88E-Δ30-EXO5 (Homo sapiens, UniProt Q9H790 31-373, T88E;del1-30)
T2 sequence: T1 sequence with T58E


Columns and labels:
Assay in all cases: X-ray crystallography
Δ30-EXO5 WT [1] = molecular target: T1, Δ30-EXO5 WT
Δ30-EXO5 WT [2] = molecular target: T1, Δ30-EXO5 WT; remark: listed apart in the source
T88E-Δ30-EXO5 = molecular target: T2, T88E-Δ30-EXO5

Binder | binding result (Δ30-EXO5 WT [1]) | binding result (Δ30-EXO5 WT [2]) | binding result (T88E-Δ30-EXO5)
ATTGCTGAAGGG (ssDNA) [12mer] | binds |  | 
TTTTTTTTTTTT (ssDNA, 3' thiol modifier C3 S-S) [dT12] |  | binds | binds

— article PMC8720176
